Measurements published in IntAct's records for PubMed 19515790.

B1: Protein root UVB sensitive 1, chloroplastic (Arabidopsis thaliana (Mouse-ear cress)), Q7X6P3 (parent)
chain: MSCSYLLSGDASVVASRRWSDVSSRQRLFLPRQSLRQPSGSSFSRCVRLVANVNDHFSKQSLATRNCLASVFSADLGGSNGNNDNGNGGGGGGDGGGDNSDDSSFDLRYLCFLLLGLSCFFHFRLSAASAIAKDQNSDSNGDAVKETVWEVRGSKRKRLVPDFVKDEFVSEESAFELSSSLTPENLLAQCRNLLTQFLLPEGFPNSVTSDYLDYSLWRGVQGIASQISGVLATQSLLYAVGLGKGAIPTAAAINWVLKDGIGYLSKIMLSKYGRHFDVHPKGWRLFADLLENAAFGMEMLTPVFPQFFVMIGAAAGAGRSAAALIQAATRSCFNAGFASQRNFAEVIAKGEAQGMVSKSVGILLGIVVANCIGTSTSLALAAFGVVTTIHMYTNLKSYQCIQLRTLNPYRASLVFSEYLISGQAPLIKEVNDEEPLFPTVRFSNMKSPEKLQDFVLSSEAKAAAADIEERLQLGSKLSDVIHNKEEAIALFDLYRNEGYILTEHKGRFCVMLKESSTPQDMLRSLFQVNYLYWLEKNAGIEPASTYSDCKPGGRLHISLDYVRREFEHAKEDSESVGWVTEGLIARPLPTRIRLGHDRELLLSSPNSS
partner: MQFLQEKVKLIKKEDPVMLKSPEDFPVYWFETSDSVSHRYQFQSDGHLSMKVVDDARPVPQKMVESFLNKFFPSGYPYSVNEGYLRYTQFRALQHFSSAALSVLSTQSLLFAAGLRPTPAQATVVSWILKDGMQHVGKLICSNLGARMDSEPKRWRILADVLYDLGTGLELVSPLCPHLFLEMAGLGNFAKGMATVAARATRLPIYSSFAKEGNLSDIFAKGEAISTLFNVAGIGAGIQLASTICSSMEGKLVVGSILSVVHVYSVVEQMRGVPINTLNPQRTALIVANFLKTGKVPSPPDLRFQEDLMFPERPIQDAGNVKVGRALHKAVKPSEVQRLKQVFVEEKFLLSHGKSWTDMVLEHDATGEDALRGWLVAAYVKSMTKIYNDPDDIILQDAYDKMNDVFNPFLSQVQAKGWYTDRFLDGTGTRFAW

Variants of: B1
Settings: with rus2_arath RUS2, Q9SJX7

Which “effect of a mutation on the interaction” value does the source give for K349G here?
The value was “disrupting interaction”.

For E298G, which “effect of a mutation on the interaction” value is on record?
The value was “decreasing interaction”.

How did the “effect of a mutation on the interaction” value turn out when N342G was run?
The value was “decreasing interaction”.

With K281G as the variant, how does the “effect of a mutation on the interaction” value read?
Its value is “disrupting interaction”.
